{"source": "paper PMC5577655", "tested_on": "NCCCC[C@H](N)C(=O)O", "test": "purified protein", "data": [{"substance": "lysyl-tRNA synthetase 1 (LdLysRS-1) (Leishmania donovani)", "values": [{"measurement": "Km", "value": "111 ± 15", "unit": "µM"}]}]}
